{
  "source": "patent US20210054076A1",
  "about": "(Chugai, published 2021)",
  "key": {"human CLDN6 [1]": {"target": "T1, human CLDN6 (human, UniProt P56747 1-220)", "T1 sequence": "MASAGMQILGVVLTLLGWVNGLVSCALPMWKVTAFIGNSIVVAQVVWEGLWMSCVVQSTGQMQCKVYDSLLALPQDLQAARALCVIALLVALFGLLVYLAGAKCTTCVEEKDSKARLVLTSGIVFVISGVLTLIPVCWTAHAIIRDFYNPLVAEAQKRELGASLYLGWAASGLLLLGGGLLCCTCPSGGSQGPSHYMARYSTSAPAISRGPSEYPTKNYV", "assay": "cell-based or functional assay"}, "mouse CLDN3": {"target": "T2, mouse CLDN3 (mouse, UniProt Q9Z0G9 1-219)", "T2 construct": "whole, on cells; also called mCLDN3; BaF3_mCLDN3", "T2 sequence (looked up)": "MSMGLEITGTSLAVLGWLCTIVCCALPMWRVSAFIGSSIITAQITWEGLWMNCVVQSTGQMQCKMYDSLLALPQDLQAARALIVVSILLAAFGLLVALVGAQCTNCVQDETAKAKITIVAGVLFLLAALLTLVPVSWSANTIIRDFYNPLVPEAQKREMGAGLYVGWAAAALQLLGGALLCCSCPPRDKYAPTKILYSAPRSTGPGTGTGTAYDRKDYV", "assay": "FACS on Ba/F3 transfectant, antibody 20 micro g/ml, FITC anti-human IgG", "method": "(§1) To evaluate the binding activity and specificity of the generated CLDN6-TRABs against CLDN6 and other Claudin family antigens, FACS analysis was conducted as follows. Ba/F3 transfectants stably express a kind of protein selected from human CLDN3 (hCLDN3), human CLDN4 (hCLDN4), human CLDN6 (hCLDN6), human CLDN9 (hCLDN9), mouse CLDN3 (mCLDN3), mouse CLDN4 (mCLDN4) and mouse CLDN6 (mCLDN6), were generated using similar method described in WO2008/087978, and named BaF3_hCLDN3, BaF3_hCLDN4, BaF3_hCLDN6, BaF3_hCLDN9, BaF3 mCLDN3, BaF3 mCLDN4, BaF3 mCLDN6, respectively. Each of the CLDN6-TRABs (CH01/CD3, CH02/CD3, CH03/CD3, CH04/CD3) was incubated with the Ba/F3 transfectants at an antibody concentration of 20 micro g/ml in FACS buffer (0.5% BSA containing autoMACS Rinsing Solution, Miltenyl Biotec). Binding activities of each CLDN6-TRAB to the Claudin family proteins (hCLDN3, hCLDN4, hCLDN6, hCLDN9, mCLDN3, mCLDN4, mCLDN6) were examined by incubation of FITC-conjugated goat anti human IgG (BeckmanCoulter), represented as Geo-mean value. Sample processing was conducted on FACSVerse (BD).\n(§2) Claudin family proteins have two extracellular domains. The sequence of the first extracellular domain in human CLDN9 is almost the same compared with the first extracellular domain of human CLDN6. For the second extracellular domain of human CLDN9, there are only two amino acids different from the ones at their corresponding positions in human CLDN6 (FIG. 2). The glutamine at position 156 of human Claudin 6 (position 156 in the sequence shown in SEQ ID NO: 44 or 45) was substituted to leucine to make a human CLDN6 mutant comprising the same amino acid as human Claudin 9 at position 156. This human CLDN6 mutant was named as hCLDN6(Q156L) (SEQ ID NO: 53). Ba/F3 transfectant stably express hCLDN6(Q156L) was generated using similar method described in WO2008/087978. The established Ba/F3 transfectant was named BaF3_hCLDN6(Q156L). Binding activity of the generated CLDN6-TRABs against BaF3_hCLDN6(Q156L) was measured using the above mentioned FACS method and the results are shown in FIG. 1 and Table 3."}, "human CLDN6 [2]": {"target": "T1, human CLDN6", "assay": "FACS on Ba/F3 transfectant, antibody 20 micro g/ml, FITC anti-human IgG", "method": "as §1, §2"}, "human CLDN4": {"target": "T3, human CLDN4 (human, UniProt O14493 1-209)", "T3 construct": "whole, on cells; also called hCLDN4; BaF3_hCLDN4", "T3 sequence (looked up)": "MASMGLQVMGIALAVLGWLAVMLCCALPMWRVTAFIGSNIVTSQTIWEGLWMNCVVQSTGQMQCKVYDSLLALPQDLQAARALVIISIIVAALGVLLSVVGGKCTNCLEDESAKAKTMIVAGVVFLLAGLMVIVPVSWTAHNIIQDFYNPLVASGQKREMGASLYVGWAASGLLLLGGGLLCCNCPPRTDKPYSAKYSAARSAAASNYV", "assay": "FACS on Ba/F3 transfectant, antibody 20 micro g/ml, FITC anti-human IgG", "method": "as §1, §2"}, "mouse CLDN4": {"target": "T4, mouse CLDN4 (mouse, UniProt O35054 1-210)", "T4 construct": "whole, on cells; also called mCLDN4; BaF3_mCLDN4", "T4 sequence (looked up)": "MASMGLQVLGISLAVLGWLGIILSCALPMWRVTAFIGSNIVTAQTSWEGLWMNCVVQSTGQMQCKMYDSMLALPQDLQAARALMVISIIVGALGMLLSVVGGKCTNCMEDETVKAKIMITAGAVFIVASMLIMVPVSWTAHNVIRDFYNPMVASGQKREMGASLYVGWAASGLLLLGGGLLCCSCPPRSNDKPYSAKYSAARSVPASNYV", "assay": "FACS on Ba/F3 transfectant, antibody 20 micro g/ml, FITC anti-human IgG", "method": "as §1, §2"}, "human CLDN3": {"target": "T5, human CLDN3 (human, UniProt O15551 1-220)", "T5 construct": "whole, on cells; also called hCLDN3; BaF3_hCLDN3", "T5 sequence (looked up)": "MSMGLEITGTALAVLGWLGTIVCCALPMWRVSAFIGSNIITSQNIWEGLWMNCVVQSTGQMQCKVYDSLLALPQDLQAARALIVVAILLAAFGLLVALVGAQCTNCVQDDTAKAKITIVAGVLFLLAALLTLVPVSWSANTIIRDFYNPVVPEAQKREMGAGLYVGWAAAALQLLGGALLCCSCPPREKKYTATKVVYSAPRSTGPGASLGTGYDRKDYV", "assay": "FACS on Ba/F3 transfectant, antibody 20 micro g/ml, FITC anti-human IgG", "method": "as §1, §2"}, "hCLDN6(Q156L)": {"target": "T6, hCLDN6(Q156L) (human, UniProt P56747 1-220)", "T6 construct": "Stably expressed on Ba/F3 cells; also called human CLDN6 mutant; BaF3_hCLDN6(Q156L)", "T6 chain": "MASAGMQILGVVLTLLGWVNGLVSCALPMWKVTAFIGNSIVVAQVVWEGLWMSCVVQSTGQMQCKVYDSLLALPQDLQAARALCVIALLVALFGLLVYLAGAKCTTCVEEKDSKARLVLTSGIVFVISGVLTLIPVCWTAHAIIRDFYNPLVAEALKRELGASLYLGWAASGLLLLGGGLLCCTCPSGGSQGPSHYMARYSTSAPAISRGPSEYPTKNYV", "assay": "FACS on Ba/F3 transfectant, antibody 20 micro g/ml, FITC anti-human IgG", "method": "as §1, §2"}},
  "data": [
    {"binder": "CH01/CD3 (bispecific antibody, human IgG1, kappa, N297A, Made by Fab arm exchange of the bivalent anti-CLDN6 antibody CH01 with the bivalent anti-CD3 antibody CD3-1; human IgG1 constant region; One anti-CLDN6 arm and one anti-CD3 arm; also called CLDN6-TRAB; CLDN6-targeted T-cell redirecting bispecific antibody) heavy 1: EVKLVESGGGLVKPGGSLKLSCAASGFTFNSYTMSWVRQTPAKRLEWVVTISSGGGRTYYPDSVKGRFTISRDNARNTLYLQMSSLRSEDTAMYYCIRGDYRYDGFAYWGQGTLVTVSTASTKGPSVFPLAPSSKSTSGGTAALGCLVKDYFPEPVTVSWNSGALTSGVHTFPAVLQSSGLYSLSSVVTVPSSSLGTQTYICNVNHKPSNTKVDKKVEPKSCDKTHTCPPCPAPELRGGPKVFLFPPKPKDTLMISRTPEVTCVVVDVSHEDPEVKFNWYVDGVEVHNAKTKPREEQYASTYRVVSVLTVLHQDWLNGKEYKCKVSNKALPAPIEKTISKAKGQPREPQVYTLPPSREEMTKNQVSLTCLVKGFYPSDIAVEWESNGQPENNYKTTPPYLDSDGSFFLYSKLTVDKSRWQQGNVFSCSVMHEALHNHYTQESLSLSP light 1: DIQMTQSPASLSASVGETVTITCRASENIDSYLAWYQQKQGKSPQLLVYASTLLVDGVPSRFSGSRSGTQFSLKINSLQSEDVARYYCQHYYSIPYTFGSGTKLEIKRTVAAPSVFIFPPSDEQLKSGTASVVCLLNNFYPREAKVQWKVDNALQSGNSQESVTEQDSKDSTYSLSSTLTLSKADYEKHKVYACEVTHQGLSSPVTKSFNRGEC heavy 2: QVQLVESGGGVVQPGGSLRLSCAASGFTFSNAWMHWVRQAPGKGLEWVAQIKDKSQNYATYVAESVKGRFTISRADSKNSIYLQMNSLKTEDTAVYYCRYVHYAAGYGVDIWGQGTTVTVSSASTKGPSVFPLAPSSKSTSGGTAALGCLVKDYFPEPVTVSWNSGALTSGVHTFPAVLQSSGLYSLSSVVTVPSSSLGTQTYICNVNHKPSNTKVDKKVEPKSCDKTHTCPPCPAPELRGGPKVFLFPPKPKDTLMISRTPEVTCVVVDVSHEDPEVKFNWYVDGVEVHNAKTKPREEQYASTYRVVSVLTVLHQDWLNGKEYKCKVSNKALPAPIEKTISKAKGQPREPQVYTLPPSRKEMTKNQVSLTCLVKGFYPSDIAVEWESNGQPENNYKTTPPYLDSDGSFFLYSKLTVDKSRWQQGNVFSCSVMHEALHNHYTQKSLSLSP light 2: DIVMTQSPLSLPVTPGEPASISCRSSQPLVHSNRNTYLHWYQQKPGQAPRLLIYKVSNRFSGVPDRFSGSGSGTDFTLKISRVEAEDVGVYYCGQGTQVPYTFGQGTKLEIKRTVAAPSVFIFPPSDEQLKSGTASVVCLLNNFYPREAKVQWKVDNALQSGNSQESVTEQDSKDSTYSLSSTLTLSKADYEKHKVYACEVTHQGLSSPVTKSFNRGEC", "values": [
      {"measurement": "EC50 (read off the curve), Jurkat/NFAT-RE luciferase reporter, target cells HuH-7", "setting": "human CLDN6 [1]", "result": "~0.09", "unit": "nM"},
      {"measurement": "Geo-mean value of FACS", "setting": "mouse CLDN3", "result": 26},
      {"measurement": "Geo-mean value of FACS", "setting": "human CLDN6 [2]", "result": 4480},
      {"measurement": "Geo-mean value of FACS", "setting": "human CLDN4", "result": 51},
      {"measurement": "Geo-mean value of FACS", "setting": "mouse CLDN4", "result": 31},
      {"measurement": "Geo-mean value of FACS", "setting": "human CLDN3", "result": 37},
      {"measurement": "Geo-mean value of FACS", "setting": "hCLDN6(Q156L)", "result": 114}
    ]}
  ]
}
